Test results as given in paper doi:10.1101/2022.03.31.486524.

Key:
[1] = molecular target: Disulfide-locked CelTOS dimer (Ser55Cys, Ala123Cys) (Plasmodium vivax); experiment: cross-linking
[2] = molecular target: CelTOS N-terminal truncation mutant (Gly51-Asp196) (Plasmodium vivax); experiment: SEC
[3] = molecular target: CelTOS double mutant Lys122Asp, Leu164Asp (Plasmodium vivax); experiment: SEC

“Disulfide-locked CelTOS dimer (Ser55Cys, Ala123Cys) (natural protein)” gave a precursor abundance of cross-linked species [1] of 70% and a stoichiometry N [1] of 2.
“CelTOS N-terminal truncation mutant (Gly51-Asp196) (domain or fragment)” showed a stoichiometry N [2] of 2.
Work on “CelTOS double mutant Lys122Asp, Leu164Asp (natural protein)” yielded a stoichiometry N [3] of 2.
